Substitutions are numbered along the chain they refer to. Names may count otherwise.

Experimental findings from patent US20250074980A1 (BRIGHAM AND WOMEN S HOSPITAL, published 2025) are described below.

T1: His-tagged CEACAM1 (human, UniProt P13688 35-428)
T1 construct: 45 kDa SPR analyte; also called CEACAM1-HIS; CEACAM1 analyte
T1 sequence: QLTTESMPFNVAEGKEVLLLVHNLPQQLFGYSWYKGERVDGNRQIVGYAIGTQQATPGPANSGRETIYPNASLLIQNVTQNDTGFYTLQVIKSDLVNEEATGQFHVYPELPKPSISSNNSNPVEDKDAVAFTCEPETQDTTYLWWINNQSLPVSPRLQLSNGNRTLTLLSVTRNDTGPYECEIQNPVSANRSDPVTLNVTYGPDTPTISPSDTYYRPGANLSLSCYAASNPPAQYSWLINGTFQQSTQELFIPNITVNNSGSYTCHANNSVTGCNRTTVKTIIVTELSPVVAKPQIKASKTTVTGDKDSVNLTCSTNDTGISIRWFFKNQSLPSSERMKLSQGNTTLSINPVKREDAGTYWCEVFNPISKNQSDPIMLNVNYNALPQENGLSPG

B1: CP09B03/CP08D02 (antibody, IgG4, V domains shown)
VH: EVQLLESGGGLVQPGGSLRLSCAASGFTFNAHAISWVRQAPGKGLEWVATISSGGTYTYYPDSVKGRFTISRDNSKNTLYLQMNSLKAEDTAMYYCARHDFDYDAAWFAYWGQGTLVTVSS
VL: EIVLTQSPATLSLSPGERATLSCRANSAVSYMYWYQQKPGQAPRPWIYLTSNRATGVPARFSGSGSGTDYTLTISSLEPEDFAVYYCQQWTSFPPTFGQGTKLEIK
notes: IgG4 (S241P), kappa
B2: CP09B03/CP08E01 (antibody, IgG4, V domains shown)
VH: B1 VH
VL: B1 VL with S92T
notes: IgG4 (S241P), kappa
B3: CP09C02/CP08G09 (antibody, IgG4, V domains shown)
VH: B1 VH with G26E, N30S, A31D, I34M, D100G
VL: B1 VL with S92A
notes: IgG4 (S241P), kappa
B4: CP09E05/CP08E01 (antibody, IgG4, V domains shown)
VH: B1 VH with T28I, N30S, A31S, A33G, I34M, D100G
VL: B1 VL with S92T
notes: IgG4 (S241P), kappa
B5: VH1/CP08D02 (antibody, IgG4, V domains shown)
VH: B1 VH with T28I, N30S, A31S, A33G, I34M
VL: B1 VL
notes: IgG4 (S241P), kappa; also called Parent VH/CP08D02
B6: CP09B03/CP08G09 (antibody, IgG4, V domains shown)
VH: B1 VH
VL: B1 VL with S92A
notes: IgG4 (S241P), kappa
B7: CP09B03/CP08F05 (antibody, IgG4, V domains shown)
VH: B1 VH
VL: B1 VL with F93N
notes: IgG4 (S241P), kappa
B8: CP09E05/Vκ8 S29A (antibody, IgG4, V domains shown)
VH: B1 VH with T28I, N30S, A31S, A33G, I34M, D100G
VL: B1 VL with T91S, F93N
notes: IgG4 (S241P), kappa
B9: VH1/CP08F05 (antibody, IgG4, V domains shown)
VH: B1 VH with T28I, N30S, A31S, A33G, I34M
VL: B1 VL with F93N
notes: IgG4 (S241P), kappa; also called Parent VH/CP08F05
B10: CP09E05/CP08E05 (antibody, IgG4, V domains shown)
VH: B1 VH with T28I, N30S, A31S, A33G, I34M, D100G
VL: B1 VL with S92T, F93N
notes: IgG4 (S241P), kappa
B11: CP09B03/Vκ8 S29A (antibody, IgG4, V domains shown)
VH: B1 VH
VL: B1 VL with T91S, F93N
notes: IgG4 (S241P), kappa
B12: CP09C02/CP08E01 (antibody, IgG4, V domains shown)
VH: B1 VH with G26E, N30S, A31D, I34M, D100G
VL: B1 VL with S92T
notes: IgG4 (S241P), kappa
B13: VH1/CP08E05 (antibody, IgG4, V domains shown)
VH: B1 VH with T28I, N30S, A31S, A33G, I34M
VL: B1 VL with S92T, F93N
notes: IgG4 (S241P), kappa; also called Parent VH/CP08E05
B14: CP09C02/CP08D02 (antibody, IgG4, V domains shown)
VH: B1 VH with G26E, N30S, A31D, I34M, D100G
VL: B1 VL
notes: IgG4 (S241P), kappa
B15: CP09E05/CP08G09 (antibody, IgG4, V domains shown)
VH: B1 VH with T28I, N30S, A31S, A33G, I34M, D100G
VL: B1 VL with S92A
notes: IgG4 (S241P), kappa
B16: CP09E05/CP08D02 (antibody, IgG4, V domains shown)
VH: B1 VH with T28I, N30S, A31S, A33G, I34M, D100G
VL: B1 VL
notes: IgG4 (S241P), kappa
B17: VH1/CP08E01 (antibody, IgG4, V domains shown)
VH: B1 VH with T28I, N30S, A31S, A33G, I34M
VL: B1 VL with S92T
notes: IgG4 (S241P), kappa; also called Parent VH/CP08E01
B18: CP09C02/Vκ8 S29A (antibody, IgG4, V domains shown)
VH: B1 VH with G26E, N30S, A31D, I34M, D100G
VL: B1 VL with T91S, F93N
notes: IgG4 (S241P), kappa
B19: CP09E05/CP08F05 (antibody, IgG4, V domains shown)
VH: B1 VH with T28I, N30S, A31S, A33G, I34M, D100G
VL: B1 VL with F93N
notes: IgG4 (S241P), kappa

The first assay concerns the target T1, His-tagged CEACAM1. In words: SPR single-cycle, supernatant IgG captured. In a few lines:
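Antibody IgG was produced by transient PEI transfection of HEK EBNA cells in 6-well plates, with supernatants collected 5-7 days later, quantified by ELISA and filtered. Binding was measured by single-cycle surface plasmon resonance on a Biacore T200 at 25° C in HBS-P+ (pH 7.4), capturing IgG on Protein A and flowing His-tagged CEACAM1 as analyte. Kon, koff and Kd were obtained by fitting, and relative KD was expressed against the parent antibody tested in the same experiment.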
Usually Kd stands for a measure of binding affinity in units of concentration. The low end stands for higher affinity, the high end for lower affinity. One may read the koff as a measure of how fast the partners let go of each other. A lower koff goes with a long-lived complex. In general, kon refers to the second-order rate constant of association. A high value points to faster complex formation. Regarding B1, binding was put at a Kd of 290 nM, the koff was 0.059 s⁻¹, the kon stood at 210000 M⁻¹ s⁻¹ and the “relative KD to parent” value amounted to 1.9.
The corresponding values for B2 are 250 nM, 0.046 s⁻¹, 180000 M⁻¹ s⁻¹ and 2.2.
With B3, the affinity, expressed as Kd, was 140 nM; the koff came to 0.018 s⁻¹; the kon stood at 130000 M⁻¹ s⁻¹; the “relative KD to parent” value was found to be 3.9.
On to B4, for which the affinity, expressed as Kd, was 320 nM; the koff amounted to 0.041 s⁻¹; the kon is 130000 M⁻¹ s⁻¹; the “relative KD to parent” value stood at 1.7.
On the same counts, the results for B5 are 450 nM, 0.057 s⁻¹, 130000 M⁻¹ s⁻¹ and 1.2.
As for B6, the Kd turned out to be 300 nM, the koff came out at 0.037 s⁻¹, the kon amounted to 130000 M⁻¹ s⁻¹ and the “relative KD to parent” value was determined as 1.9.
On the same counts, the results for B7 are 150 nM, 0.017 s⁻¹, 110000 M⁻¹ s⁻¹ and 3.6.
The corresponding values for B8 are 300 nM, 0.035 s⁻¹, 120000 M⁻¹ s⁻¹ and 1.8.
B9: the Kd is 280 nM, the koff came to 0.029 s⁻¹, the kon is 100000 M⁻¹ s⁻¹ and the “relative KD to parent” value was determined as 2.
The corresponding values for B10 are 200 nM, 0.02 s⁻¹, 100000 M⁻¹ s⁻¹ and 2.8.
The corresponding values for B11 are 300 nM, 0.052 s⁻¹, 170000 M⁻¹ s⁻¹ and 1.8.
The corresponding values for B12 are 140 nM, 0.02 s⁻¹, 140000 M⁻¹ s⁻¹ and 3.9.
Turning to B13, the dissociation constant Kd stood at 230 nM, the koff was 0.034 s⁻¹, the kon was 150000 M⁻¹ s⁻¹ and the “relative KD to parent” value was determined as 2.4.
On the same counts, the results for B14 are 140 nM, 0.022 s⁻¹, 160000 M⁻¹ s⁻¹ and 4.
On the same counts, the results for B15 are 320 nM, 0.043 s⁻¹, 140000 M⁻¹ s⁻¹ and 1.8.
The corresponding values for B16 are 330 nM, 0.074 s⁻¹, 230000 M⁻¹ s⁻¹ and 1.7.
Regarding B17, the Kd was found to be 450 nM, the koff amounted to 0.053 s⁻¹, the on-rate (kon) is 120000 M⁻¹ s⁻¹ and the “relative KD to parent” value stood at 1.2.
On the same counts, the results for B18 are 170 nM, 0.019 s⁻¹, 110000 M⁻¹ s⁻¹ and 3.3.
The corresponding values for B19 are 250 nM, 0.034 s⁻¹, 140000 M⁻¹ s⁻¹ and 2.2.

The next assay concerns the target T1, His-tagged CEACAM1. As to the kind of experiment: SPR single-cycle, supernatant IgG captured. This is another data set of the same source. The protocol: In order to assess the binding of the humanized, affinity matured reformatted lead IgGs, single-cycle kinetics analysis was performed on crude supernatants using a Biacore T200 running Biacore T200 Control Software V2.0.1 and Biacore T200 Evaluation Software V3.0. Antibodies were diluted in HBS-P+ to a final concentration of 0.5 μg/ml. At the start of each cycle, antibodies were loaded onto Fc2, Fc3 and Fc4 of the Protein A chip. IgGs were captured at a flow rate of 10 μl/min to give an immobilisation level (RL) of ˜100 RU (a level calculated to obtain a Rₘₐₓ of ˜50-150 RU once the analyte is bound). The surface was then allowed to stabilize. Single-cycle kinetics data was obtained with CEACAM1 as the analyte at a flow rate of 80 μl/min to minimize any potential mass transfer effects. Multiple repeats with the parent (VH1/Vκ8 S29A) antibody were performed to check the stability of the surface and analyte over the kinetic cycles. The signal from the reference channel Fc1 (no antibody) was subtracted from that of Fc2, Fc3 and Fc4 to correct for differences in non-specific binding to the reference surface. A three point, two-fold dilution range from 70 nM to 280 nM CEACAM1 without regeneration between each concentration was used. The signal from each antibody blank run (no CEACAM1) was subtracted to correct for differences in surface stability. The association phase for the three injections of increasing concentrations of CEACAM1 was monitored for 80 seconds each time and a single dissociation phase was measured for 150 seconds following the last injection of CEACAM1. Regeneration of the Protein A surface was conducted using two injections of 10 mM glycine-HCL pH 1.5 followed by a stabilization period of 250 seconds.
As to B5, the Kd was determined as 100 nM, the koff was 0.043 s⁻¹, the on-rate constant (kon) stood at 430000 M⁻¹ s⁻¹ and the “relative KD to parent” value worked out at 6.2.
The corresponding values for B8 are 320 nM, 0.037 s⁻¹, 120000 M⁻¹ s⁻¹ and 1.4.
Regarding B9, the Kd was 280 nM, the koff was 0.11 s⁻¹, the kon amounted to 400000 M⁻¹ s⁻¹ and the “relative KD to parent” value came to 2.2.
The corresponding values for B11 are 260 nM, 0.039 s⁻¹, 150000 M⁻¹ s⁻¹ and 2.4.
The corresponding values for B13 are 140 nM, 0.034 s⁻¹, 240000 M⁻¹ s⁻¹ and 4.4.
The corresponding values for B17 are 170 nM, 0.054 s⁻¹, 330000 M⁻¹ s⁻¹ and 3.7.
Take B18: the equilibrium dissociation constant (Kd) came to 88 nM, the off-rate constant (koff) is 0.017 s⁻¹, the kon is 200000 M⁻¹ s⁻¹ and the “relative KD to parent” value was found to be 7.1.
